Measurements taken from patent US20120135912A1 (PERSEID THERAPEUTICS, published 2012).
Where a chain is given by its changes, count along the chain named.

How the values were obtained:
[1] = molecular target: T1, human LPAM-1-Fc (alpha4-Fc/beta7-Fc heterodimer) (human); assay: SPR (BIACORE) as in Example 12, polypeptide purified from E. coli as analyte on captured LPAM-1-Fc; KD drawn as bars (Example 20)
T1 construct: Soluble heterodimer from CHO cells, Protein A purified

[2] = molecular target: T2, human VLA4-Fc (alpha4-Fc/beta1-Fc heterodimer) (human); assay: SPR (BIACORE) as in Example 12, polypeptide purified from E. coli as analyte on captured VLA4-Fc; the black bar is broken and the value is written over it (Example 20)
T2 construct: Soluble heterodimer from CHO cells, Protein A purified; also called VLA-Fc
T2 sequence (chain, as listed by the source limits assumed, form in doubt, chain 1 of 2): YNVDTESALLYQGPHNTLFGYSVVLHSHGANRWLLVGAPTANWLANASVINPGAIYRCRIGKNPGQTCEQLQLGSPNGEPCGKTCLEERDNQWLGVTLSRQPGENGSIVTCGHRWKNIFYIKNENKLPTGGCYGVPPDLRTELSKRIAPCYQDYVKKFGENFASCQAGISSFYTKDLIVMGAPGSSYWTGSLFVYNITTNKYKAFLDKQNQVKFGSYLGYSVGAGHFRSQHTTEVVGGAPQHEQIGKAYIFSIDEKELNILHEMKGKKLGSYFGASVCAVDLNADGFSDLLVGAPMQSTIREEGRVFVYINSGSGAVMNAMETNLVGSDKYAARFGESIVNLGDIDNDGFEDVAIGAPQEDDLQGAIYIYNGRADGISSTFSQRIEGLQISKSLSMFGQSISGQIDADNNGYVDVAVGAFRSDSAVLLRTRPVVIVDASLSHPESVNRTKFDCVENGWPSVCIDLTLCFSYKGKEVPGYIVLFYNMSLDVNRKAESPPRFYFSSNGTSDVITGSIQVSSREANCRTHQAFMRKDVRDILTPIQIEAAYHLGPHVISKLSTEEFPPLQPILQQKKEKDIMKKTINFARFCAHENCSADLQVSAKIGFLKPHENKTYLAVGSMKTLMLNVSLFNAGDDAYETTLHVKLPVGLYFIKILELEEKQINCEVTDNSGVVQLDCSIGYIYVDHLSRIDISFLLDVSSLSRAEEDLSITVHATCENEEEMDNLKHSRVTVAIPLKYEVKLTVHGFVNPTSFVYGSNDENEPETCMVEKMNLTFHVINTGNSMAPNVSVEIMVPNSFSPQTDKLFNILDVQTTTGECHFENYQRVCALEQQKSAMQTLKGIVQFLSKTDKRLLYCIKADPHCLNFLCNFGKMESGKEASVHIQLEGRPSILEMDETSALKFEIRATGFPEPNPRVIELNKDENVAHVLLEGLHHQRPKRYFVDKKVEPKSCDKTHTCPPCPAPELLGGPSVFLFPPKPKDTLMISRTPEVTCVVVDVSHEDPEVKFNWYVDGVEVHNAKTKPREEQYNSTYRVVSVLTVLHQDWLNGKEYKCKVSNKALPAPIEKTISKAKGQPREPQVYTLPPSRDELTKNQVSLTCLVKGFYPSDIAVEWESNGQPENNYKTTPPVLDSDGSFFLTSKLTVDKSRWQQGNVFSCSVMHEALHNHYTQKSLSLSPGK
T2 sequence (chain, as listed by the source limits assumed, form in doubt, chain 2 of 2): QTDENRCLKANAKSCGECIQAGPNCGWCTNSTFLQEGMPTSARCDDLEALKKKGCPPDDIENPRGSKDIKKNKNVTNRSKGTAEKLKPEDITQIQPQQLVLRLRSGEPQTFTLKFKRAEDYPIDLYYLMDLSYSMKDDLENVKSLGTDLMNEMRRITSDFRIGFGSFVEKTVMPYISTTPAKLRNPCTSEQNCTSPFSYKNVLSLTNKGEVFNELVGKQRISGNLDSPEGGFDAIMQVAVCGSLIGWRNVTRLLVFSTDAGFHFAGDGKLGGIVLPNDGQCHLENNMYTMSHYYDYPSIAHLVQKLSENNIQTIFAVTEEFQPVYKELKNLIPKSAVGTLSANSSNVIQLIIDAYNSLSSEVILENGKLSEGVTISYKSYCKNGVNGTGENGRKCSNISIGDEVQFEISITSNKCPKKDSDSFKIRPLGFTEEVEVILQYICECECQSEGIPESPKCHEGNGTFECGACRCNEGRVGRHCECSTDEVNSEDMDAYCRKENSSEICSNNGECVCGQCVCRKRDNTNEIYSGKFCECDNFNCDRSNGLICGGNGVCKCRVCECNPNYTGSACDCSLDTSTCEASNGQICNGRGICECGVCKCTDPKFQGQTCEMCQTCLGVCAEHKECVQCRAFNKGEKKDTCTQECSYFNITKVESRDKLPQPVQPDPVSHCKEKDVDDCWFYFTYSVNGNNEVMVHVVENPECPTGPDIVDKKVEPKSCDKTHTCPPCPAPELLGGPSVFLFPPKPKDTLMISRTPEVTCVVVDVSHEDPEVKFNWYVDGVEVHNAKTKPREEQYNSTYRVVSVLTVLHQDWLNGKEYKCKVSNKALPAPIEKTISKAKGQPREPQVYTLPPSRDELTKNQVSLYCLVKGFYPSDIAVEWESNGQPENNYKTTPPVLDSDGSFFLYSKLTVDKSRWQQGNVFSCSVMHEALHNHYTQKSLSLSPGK

[3] = molecular target: T2, human VLA4-Fc (alpha4-Fc/beta1-Fc …); assay: SPR (BIACORE), crude CHO-S supernatant on VLA4-Fc
[4] = molecular target: T1, human LPAM-1-Fc (alpha4-Fc/beta7-Fc …); assay: SPR (BIACORE), LPAM-1-Fc captured by anti-human IgG, 1 mM MnCl2, 1:1 Langmuir
Protocol: (§1) The kinetic 2D-VCAM-1 assay measures binding kinetics of a dimeric ligand (e.g., VLA-Fc fusion protein or LPAM-1-Fc fusion protein) coated to sensor chips and monomeric analyte (e.g., 2D-VCAM-1 variant polypeptides) in the mobile phase. Goat anti-human IgG antibody (Jackson ImmunoResearch, Catalog No. 105-005-098) was immobilized on CM-5 sensor chips (GE Healthcare, Catalog No. BR-1000-14) according to the manufacturer's protocol. Antibody was diluted to 30 μg/ml in immobilization buffer (10 mM sodium acetate, pH 5.0 (GE Healthcare, Catalog No. BR-1003-51)). […] Un-reacted sites were quenched with 35 μl of 1 M ethanolamine-HCl pH 8.5 (GE Healthcare, Catalog No. BR-1000-50). This procedure typically yielded 15,000 response units (RU) of coupled antibody. VLA4-Fc or LPAM-1-Fc, prepared as described in Examples 3 and 4, respectively, were bound to antibody-coated sensor chips by injection of 20 μl of ligand solution (20 μg/ml protein in HBS-P-Mn buffer at a flow rate of 10 μl/min). Ligand capture levels were typically 200-300 RU. 2D-VCAM-1 variant polypeptides were diluted in HBS-P-Mn and flowed over ligand-coated sensor chips for 2 min at 30 μl/min, followed by 5 min incubation with in HBS-P-Mn containing no protein at the same flow rate. For 2D-VCAM-1 variant polypeptides having very slow dissociation rates from VLA4-Fc or LPAM-1-Fc, kinetic assays were also conducted using longer dissociation times (e.g., 20 min). Rmax signal levels for 2D-VCAM-1 variant polypeptides ranged from approximately 5-25 RU. Regeneration between cycles was performed by 200 sec incubation with 10 mM glycine buffer (pH 1.7) at 50 μl/min. New chips were subjected to 4-5 cycles of capture/binding/regeneration prior to use in actual experiments. Data from a reference cell containing goat anti-human IgG capture antibody alone was subtracted from data obtained from flow cells containing captured VLA4-Fc or LPAM-1-Fc. Typically, 8 dilutions of 2D-VCAM-1 variant polypeptides ranging from 150 nM to 0.069 nM were analyzed against a blank reference (HBS-P-Mn buffer alone).

[5] = molecular target: T2, human VLA4-Fc (alpha4-Fc/beta1-Fc …); assay: SPR (BIACORE), VLA4-Fc captured by anti-human IgG, 1 mM MnCl2, 1:1 Langmuir
Protocol: as §1

[6] = molecular target: T2, human VLA4-Fc (alpha4-Fc/beta1-Fc …); assay: ELISA, VLA4-Fc coated, 1 mM MnCl2; from EC50 values
Protocol: The relative binding affinities of various 2D-VCAM-1 variants to immobilized VLA4-Fc (α4-β1-Fc) heterodimer, relative to a control protein (e.g., Q38L-2D-VCAM-1 or to human 2D-VCAM-1), were deter using a solid-phase ELISA assay. MAXISORP™ ELISA plates (NUNC) were coated overnight at 4° C. with 50 ul VLA4-Fc heterodimer, 2 ug/ml in TBS-M (TBS (25 mM Tris-HCl pH 7.5, 150 mM NaCl) with 1 mM MnCl2), washed with TBS-T (TBS with 0.05% TWEEN-20), blocked with 200 ul 3% milk in TBS-M for 1 h at room temperature, and washed again with TBS-T. A four-fold dilution series of the purified 2D-VCAM variants to be assayed was made in COSTAR U-bottom plates in TBS-TMC (TBS with 0.05% Tween-20, 1 mM MnCl2, and 1% casein; Sigma) with a starting concentration of 8.2 uM (200 ug/ml). The dilution series was transferred into the ELISA plate which was incubated at room temperature for 2 h and subsequently washed with TBS-T. Bound 2D-VCAM protein was detected by incubation with 0.5 ug/ml of biotinylated anti-human VCAM antibody (R&D Systems, Catalog No. BAF809) in TBS-TMC for 1 h at room temperature followed by a TBS-MT (TBS plus 1 mM MnCl2 and 0.02% TWEEN-20) wash and subsequent incubation with 1:2000 dilution of streptavidin-HRP (BD Biosciences, Catalog No. 554066) in TBS-TMC for 30 min at room temperature. […] Typical development times ranged from […] and development was stopped by addition of 50 ul 2M H₂SO₄ (EM, Catalog No. SX1244-75). […] Fold-improvement in binding was calculated relative to a control protein (e.g., Q38L-2D-VCAM-1 or human 2D-VCAM-1) assayed on the same plate.

[7] = molecular target: T1, human LPAM-1-Fc (alpha4-Fc/beta7-Fc …); assay: ELISA, LPAM-1-Fc coated, 1 mM MnCl2; from EC50 values
Protocol: The relative binding affinities of various 2D-VCAM variant proteins to immobilized LPAM-1-Fc (α4-Fc/β-7-Fc) heterodimer, relative to a control protein (e.g., Q38L-2D-VCAM-1 or human 2D-VCAM-1), were determined using a solid-phase ELISA assay. MAXISORP™ ELISA plates (NUNC) were coated overnight at 4° C. with 50 ul LPAM-1-Fc heterodimer (2 ug/ml in TBS-M, TBS (25 mM TRIS-HCl pH 7.5, 150 mM NaCl with 1 mM MnCl2), washed with TBS-T (TBS with 0.05% Tween-20), blocked with 200 ul 3% milk in TBS-M for 1 hr at room temperature, and washed again with TBS-T. A four-fold dilution series of the purified 2D-VCAM-1 variants to he assayed was made in COSTAR U-bottom plates in TBS-TMC (TBS with 0.05% Tween-20, 1 mM MnCl2 and 1% casein; Sigma) with a starting concentration of 8.2 uM (200 ug/ml). The dilution, series were transferred into the ELISA plate which was incubated at room temperature for 2 h and subsequently washed with TBS-T. Bound 2D-VCAM-1 protein was detected by incubation with 0.5 ug/ml of biotinylated anti-human VCAM antibody (R&D Systems, Catalog No. BAF809) in TBS-TMC for 1 h at room temperature followed by a TBS-T wash and subsequent incubation with 1:2000 dilution of streptavidin-HRP (BD Biosciences, Catalog No. 554066) in TBS-TMC for 30 min at room temperature. […] Typical development times ranged from 5-15 min and development was stopped by addition of 50 ul 2M H₂SO₄ (EM, Catalog No. SX1244-75). […] Fold-improvement in binding was calculated relative to a control protein (Q38L-2D-VCAM-1) assayed on the same plate.

T1 sequence (chain, as listed by the source limits assumed, chain 1 of 2): as the sequence (chain, as listed by the source limits assumed, form in doubt, chain 1 of 2) above
T1 sequence (chain, as listed by the source limits assumed, chain 2 of 2): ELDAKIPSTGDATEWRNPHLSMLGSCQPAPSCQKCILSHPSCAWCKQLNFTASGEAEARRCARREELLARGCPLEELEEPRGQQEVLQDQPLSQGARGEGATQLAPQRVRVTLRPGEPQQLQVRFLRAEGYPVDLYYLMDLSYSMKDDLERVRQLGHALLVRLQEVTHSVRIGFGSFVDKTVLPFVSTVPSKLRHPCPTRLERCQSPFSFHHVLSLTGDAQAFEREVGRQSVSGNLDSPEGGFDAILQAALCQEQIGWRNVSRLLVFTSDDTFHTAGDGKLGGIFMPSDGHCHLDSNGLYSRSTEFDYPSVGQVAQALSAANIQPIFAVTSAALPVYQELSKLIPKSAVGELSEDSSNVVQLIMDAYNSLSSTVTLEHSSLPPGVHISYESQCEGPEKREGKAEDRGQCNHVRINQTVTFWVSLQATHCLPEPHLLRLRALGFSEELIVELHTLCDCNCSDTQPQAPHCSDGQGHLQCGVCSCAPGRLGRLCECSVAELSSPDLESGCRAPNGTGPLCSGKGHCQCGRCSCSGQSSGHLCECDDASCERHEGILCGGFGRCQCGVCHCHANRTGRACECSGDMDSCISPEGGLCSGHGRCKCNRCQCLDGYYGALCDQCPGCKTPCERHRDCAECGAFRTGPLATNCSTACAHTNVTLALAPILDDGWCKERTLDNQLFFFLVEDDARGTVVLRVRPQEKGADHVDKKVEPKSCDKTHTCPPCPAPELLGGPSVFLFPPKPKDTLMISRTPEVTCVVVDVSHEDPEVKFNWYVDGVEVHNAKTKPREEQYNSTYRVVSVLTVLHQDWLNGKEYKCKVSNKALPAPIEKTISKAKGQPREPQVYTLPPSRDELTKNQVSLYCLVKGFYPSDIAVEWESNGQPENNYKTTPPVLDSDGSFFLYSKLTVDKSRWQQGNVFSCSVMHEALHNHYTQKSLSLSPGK

B1: R1R7 (ligand)
2D-VCAM-1 variant polypeptide: MFKIETTPESRYLAQIGDSVSLTCSTTGCESPFFFWRPLLDSPLNGKVTNEGTTSTLTMNPVSFGNEHSYLCTARCESRKLEKGIQVEIYSFPKDPEIHLSGPLEAGKPITVKCSVADVYPFDRLEIDLLKGDHLMKSQEFLEDADRKSLETKSLEVTFTPVIEDIGKVLVCRAKLHIDEMDSVPTVRQAVKELQVYISP
notes: also called 146R1R7
[1]
  binding result: binds

B2: R1R5 (ligand)
2D-VCAM-1 variant polypeptide: B1 2D-VCAM-1 variant polypeptide with L40I, K80S
notes: also called 146R1R5
[1]
  binding result: binds

B3: R6R7 (ligand)
2D-VCAM-1 variant polypeptide: B1 2D-VCAM-1 variant polypeptide with F33L, R75T
notes: also called 146R6R7
[1]
  binding result: binds

B4: R1R3 (ligand)
2D-VCAM-1 variant polypeptide: B1 2D-VCAM-1 variant polypeptide with P38T, K80S
notes: also called 146R1R3
[1]
  binding result: binds

B5: R5R7 (ligand)
2D-VCAM-1 variant polypeptide: B1 2D-VCAM-1 variant polypeptide with F33L, L40I
notes: also called 146R5R7
[1]
  binding result: binds

B6: R1R6R7 (ligand)
2D-VCAM-1 variant polypeptide: B1 2D-VCAM-1 variant polypeptide with R75T
notes: also called 146R1R6R7
[1]
  binding result: binds

B7: R3R7 (ligand)
2D-VCAM-1 variant polypeptide: B1 2D-VCAM-1 variant polypeptide with F33L, P38T
notes: also called 146R3R7
[1]
  binding result: binds

B8: R3R5R7 (ligand)
2D-VCAM-1 variant polypeptide: B1 2D-VCAM-1 variant polypeptide with F33L, P38T, L40I
notes: also called 146R3R5R7
[2]
  Kd: 0.25 nM
[1]
  binding result: binds

B9: 146R20 (ligand)
chain: FKIETTPESRYLAQIGDSVSLTCSTTGCESPFFFWRPQIDSPLNGKVTNEGTTSTLTMNPVSFGNEHSYLCTARCESRSLEKGIQVEIYSFPKDPEIHLSGPLEAGKPITVKCSVADVYPFDRLEIDLLKGDHLMKSQEFLEDADRKSLETKSLEVTFTPVIEDIGKVLVCRAKLHIDEMDSVPTVRQAVKELQVYISPGGGSDYKDDDDKGGGSDYKDDDDKGGGSDYKDDDDKGS
notes: Crude CHO-S supernatant, 3x spacer-FLAG tagged
[3]
  fold weaker binding relative to 146R0 (KD(variant)/KD(146R0)): 9.3 fold

B10: 146R21 (ligand)
chain: B9 chain with P37T, Q38L, I39L
notes: Crude CHO-S supernatant, 3x spacer-FLAG tagged; also called I46R21
[3]
  fold weaker binding relative to 146R0 (KD(variant)/KD(146R0)): 1 fold

B11: 146R23 (ligand)
chain: B9 chain with P37T, Q38L, I39L, S79K
notes: as for B9
[3]
  fold weaker binding relative to 146R0 (KD(variant)/KD(146R0)): 6.1 fold

B12: 146R22 (ligand)
chain: B9 chain with F32L, P37T, Q38L, I39L, S79K
notes: as for B9
[3]
  fold weaker binding relative to 146R0 (KD(variant)/KD(146R0)): 1.6 fold

B13: human 2D-VCAM-1 (ligand)
chain: FKIETTPESRYLAQIGDSVSLTCSTTGCESPFFSWRTQIDSPLNGKVTNEGTTSTLTMNPVSFGNEHSYLCTATCESRKLEKGIQVEIYSFPKDPEIHLSGPLEAGKPITVKCSVADVYPFDRLEIDLLKGDHLMKSQEFLEDADRKSLETKSLEVTFTPVIEDIGKVLVCRAKLHIDEMDSVPTVRQAVKELQVYISP
notes: also called wild type 2D-VCAM-1; wt-2D-VCAM-1; not shown: His tag
[4]
  Kd: 248 nM
  binding affinity for LPAM-1-Fc relative to human 2D-VCAM-1: 1 fold
[5]
  Kd: 15.2 nM
  binding affinity for VLA4-Fc relative to human 2D-VCAM-1: 1 fold

B14: 2D-VCAM-1 variant Clone 151 (ligand)
chain: B13 chain with F32S, S34Y, T37P, I39L, S41A, T74A, K79R
notes: not shown: His tag
[6]
  fold-improvement in binding relative to Q38L-2D-VCAM-1: 2 fold
  fold-improvement in binding relative to human 2D-VCAM-1: 16 fold

B15: 2D-VCAM-1 variant Clone 147 (ligand)
chain: B13 chain with F32S, S34Y, T37P, Q38L, I39L, T74A, K79R
notes: not shown: His tag
[7]
  fold improvement in binding relative to Q38L-2D-VCAM-1: 23 fold
[6]
  fold-improvement in binding relative to Q38L-2D-VCAM-1: 11 fold
  fold-improvement in binding relative to human 2D-VCAM-1: 88 fold

B16: 2D-VCAM-1 variant Clone 150 (ligand)
chain: B13 chain with F32L, S34F, T37P, I39L, S41A, T74R, K79S
notes: not shown: His tag of the E. coli construct
[4]
  Kd: 31.2 nM
  binding affinity for LPAM-1-Fc relative to human 2D-VCAM-1: 8 fold
[7]
  fold improvement in binding relative to Q38L-2D-VCAM-1: 5 fold
[6]
  fold-improvement in binding relative to Q38L-2D-VCAM-1: 4 fold
  fold-improvement in binding relative to human 2D-VCAM-1: 32 fold
[5]
  Kd: 0.417 nM
  binding affinity for VLA4-Fc relative to human 2D-VCAM-1: 36 fold
